Values belong to the molecule of their own block, whether it stands above or below them.
Legend:
F-MM2 MM2 (Homo sapiens) = F-MM2 MM2 (Homo sapiens) (UniProt Q8IYD8); experiment: FP; conditions: cited from earlier work
[1] = molecular target: T1, RMI core complex (RMI1 OB2 domain with RMI2) (Homo sapiens, UniProt Q96E14+Q9H9A7); experiment: ITC; type: binding
T1 sequence (Q9H9A7 473-625 limits assumed): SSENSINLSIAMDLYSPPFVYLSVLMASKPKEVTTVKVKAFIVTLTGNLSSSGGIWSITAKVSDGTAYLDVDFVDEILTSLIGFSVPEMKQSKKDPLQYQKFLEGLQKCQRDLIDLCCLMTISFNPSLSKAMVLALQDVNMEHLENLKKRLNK
T1 sequence (Q96E14 1-147): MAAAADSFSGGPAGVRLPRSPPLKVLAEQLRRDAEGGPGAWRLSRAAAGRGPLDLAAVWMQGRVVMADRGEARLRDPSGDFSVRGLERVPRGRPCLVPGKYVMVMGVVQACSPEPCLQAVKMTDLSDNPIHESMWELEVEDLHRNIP

[2] = molecular target: RMI core complex (OB2 domain of RMI1 and the entirety of RMI2) (UniProt Q96E14); experiment: fluorescence polarisation
[3] = molecular target: RMI core complex with a N-terminal 6X-His tagged RMI2 (UniProt Q96E14); experiment: AlphaScreen or HTRF

Molecule: RMI core complex core complex (from UniProt Q9H9A7)
Kd (F-MM2 MM2 (Homo sapiens)): < 5 nM

Kd [1]: 3400 ± 1000 nM
Molecule: CCOC(=O)N1CCN(C(c2ccccn2)c2c(-c3ccccc3)n(O)c3ccccc23)CC1 (stereo not shown) [PIP-199]

IC50 [2]: 510 nM
IC50 [3]: 180 nM
Molecule: MM2 peptide from FANCM (unlabeled)
